# Measurements: US20230203156A1 (published 2023)
# T1: cynomolgus CD47 (cynomolgus, UniProt A0A5F8AK49 19-323)
# T1 chain: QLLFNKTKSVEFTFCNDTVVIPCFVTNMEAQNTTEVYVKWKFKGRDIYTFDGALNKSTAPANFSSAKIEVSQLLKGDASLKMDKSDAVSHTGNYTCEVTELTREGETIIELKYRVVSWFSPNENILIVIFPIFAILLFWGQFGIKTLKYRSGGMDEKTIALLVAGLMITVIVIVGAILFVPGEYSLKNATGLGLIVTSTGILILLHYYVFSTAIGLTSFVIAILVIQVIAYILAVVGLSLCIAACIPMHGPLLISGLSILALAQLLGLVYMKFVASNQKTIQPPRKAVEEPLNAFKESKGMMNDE
# Target: T1, cynomolgus CD47
# Assay: FACS binding, C6-cKT14 cells
row,Binder,EC50 [nM]
1,15D3DD/KT14KK/VL6.CDR3mod (antibody) chain 1: EVKVVESGGVLVRPGGSLKLSCAASGFTFSRYTMSWVRQTPEKRLEWVATISSGGGNTYYPDSVKGRFTVSRDNAMSSLYLQMSSLRSEDTALYYCARYGAGDAWFAYWGQGTLVTVSS chain 2: QVQLVQSGAEVKKPGASVKVSCKASGYTFTNYNMHWVRQAPGQRLEWMGTIYPGNDDTSYNQKFKDRVTITADTSASTAYMELSSLRSEDTAVYYCARGGYRAMDYWGQGTLVTVSS chain 3: DVLMTQTPLSLPVSLGDQASISCRSSQSLVHSNGNTYLEWYLQKPGQSPKLLIYKVSNRFSGVPDRFSGSGSGTDFTLKISRVEAEDLGVYYCFQGSHFPRTFGGGTKLEIKRTVAAPSVFIF,44
2,15D3DD/KT14KK/B1.27 (antibody) chain 1: EVKVVESGGVLVRPGGSLKLSCAASGFTFSRYTMSWVRQTPEKRLEWVATISSGGGNTYYPDSVKGRFTVSRDNAMSSLYLQMSSLRSEDTALYYCARYGAGDAWFAYWGQGTLVTVSS chain 2: QVQLVQSGAEVKKPGASVKVSCKASGYTFTNYNMHWVRQAPGQRLEWMGTIYPGNDDTSYNQKFKDRVTITADTSASTAYMELSSLRSEDTAVYYCARGGYRAMDYWGQGTLVTVSS chain 3: DVLLTQTPLSLPVSLGDQASISCRSSQNIVHSTGNTYLDWYLQKPGQSPKLLIYKVSNRFSGVPDRFSGSGSGTDFTLKISRVEAEDLGVYFCFQGSHIPRTFGGGTKLEIK,36
3,15D3DD KT14KK B1.89v1 LC (bispecific antibody) heavy 1: not shown heavy 2: not shown VL: DVLMTQTPLSLPVSLGDQASISCRSSQTIVHSNGNTYLEWYLQKPGQSPKLLIYKVSKRFSGVPDRFSGSGSGTDFTLKISRVEAEDLGVYYCFQASHFPRTFGGGTKLEIK,21
4,15D3DD/KT14KK/225v1 (antibody) chain 1: EVKVVESGGVLVRPGGSLKLSCAASGFTFSRYTMSWVRQTPEKRLEWVATISSGGGNTYYPDSVKGRFTVSRDNAMSSLYLQMSSLRSEDTALYYCARYGAGDAWFAYWGQGTLVTVSS chain 2: QVQLVQSGAEVKKPGASVKVSCKASGYTFTNYNMHWVRQAPGQRLEWMGTIYPGNDDTSYNQKFKDRVTITADTSASTAYMELSSLRSEDTAVYYCARGGYRAMDYWGQGTLVTVSS chain 3: DVVMTQTPLSLPVSLGDQASISCRFSQSIVHSNGNTYLEWYLQKPGQSPKLLIYKVSNRFFGVPDRFSGSGSGTDFTLKISRVEAEDLGVYYCFQASHFPRTFGGGTKLEIK,37

# Target: human MDR1 (multidrug resistance protein 1) (UniProt P08183 1-1280)
# Assay: FACS binding, 293T cells expressing human MDR1
row,Binder,EC50 [nM]
1,"B1.188 (antibody, V domains shown) VH: EVMLVESGGALVKPGGSLKLSCAASGFTFSNYAMSWVRQTPEKRLEWVATISSGGSYTYYPDSVKGRFTISRDNARNTLYLQMSSLRSEDTAMYYCARGYGNFAWFAYWGQGTLVTVSA VL: DIQMTQSPLSLPVSLGDQASISCRSSQSIVHSTGNTYLEWYLQKPGQSPKLLIYKVSNRFSGVPDRFSGSGSGTDFTLKISRVEAEDLGVYYCFQGSHVPFTFGSGTKLEIK",14.1
2,"B1.27 (antibody, V domains shown) VH: EVKLVESGGGLVKPGGSLKLSCAASGFTFSSYTMSWVRQTPEKRLEWVATVSSGGGNTYYPDSVKGRFTISRDNAKNNLYLQMSSPRSEDTALYYCARYGNYGWFTYWGQGTLVTVSS VL: DVVMTQTPLSLPVSLGDQASISCRSSQNIVHSTGNTYLDWYLQKPGQSPKLLIYKVSNRFSGVPDRFSGSGSGTDFTLKISRVEAEDLGVYFCFQGSHIPRTFGGGTKLEIK",34
3,"B1.198 (antibody, V domains shown) VH: EVQLVESGGALVKPGGSLKLSCAASGFTFSNYAMSWVRQTPEKRLEWVATISSGGSYTYYPDSVKGRFTISRDNAKNTLYLQMSSLRSEDTALYYCAKYSNYGRFAYWGQGTLVTVSA VL: DVVMTQTPLSLPVSLGDQASISCRSSQSIVDSNGNTYLEWYLQKPGQSPKLLIYKVSNRFFGVPDRFSGSGSGTDFTLKISRVEAEDLGVYYCFQGSHVPYTFGGGTKLEIK",14.8
4,"B1.99 (antibody, V domains shown) VH: EVQLVESGGALVKPGGSLKLSCAASGFTFSNYAMSWVRQTPERRLEWVATISSGGSYTYYPDSVKGRFTISRDNAKNTLYLQMSSLISEDTALYYCTRGYGNFAWFAYWGHGTLVTVSA VL: DVVMTQTPLSLPVSLGDQVSISCRSSQSIVHSYGSTYLEWYLQKPGQSPKLLIYKVSNRFSGVPDRFSGSGSGTDFTLKISRVEAEDLGVYFCFQGSHIPYTFGGGTKLELK",88.2
5,"B1.30 (antibody, V domains shown) VH: EVMLVESGGGLVKPGGSLKLSCAASGFTFSSYTMSWVRQTPEKRLEWVATISSGGGNTYYPDSVKGRFTISRDNAKNNLYLQMSSLRSEDTALYYCARYYRYDAWFAYWGQGTLVTVSA VL: DVLMTQTPLSLPVSLGDQASISCRSSQSIVHSTGNTYLEWYLQKPGQSPKLLIYKVSNRFSGVPDRFSGSGSGTDFTLKISRVETEDLGVYYCFQGSHVPRTFGGGTKLEIK",8.5
6,"B1.223 (antibody, V domains shown) VH: EVKLVESGGALVKPGGSLKLSCAASGFTFSNYAMSWVRQTPEKRLEWVATISSGGSYTYYPDSVKGRFTISRDNAKTTLYLQMSGLRSEDTALYYCAKFSNYGRFASWGQGTLVTVSS VL: DIQMIQSPLSLPVSLGDQASISCRSSQSIVHSSGNTYLEWYLQKPGQSPRLLIYKVSNRFFGVPDRISGSGSGTDFTLRISRVEAEDLGVYYCFQGSHVPYTFGGGTKLELK",4.6
7,"B1.178 (antibody, V domains shown) VH: EAQLVESGGALVKPGGSLKLSCSASGFTFSNYAMSWVRQTPEKRLEWVATISSGGTNTYYPGSVKGRFTIARDNAKNTLYLLMSSLRSEDTALYFCARYSNLAWFASWGQGTLVTVSA VL: DVVMTQTPLSLPVSLGDQASISCRSSQSIVHSNGNTYLEWYLQKPGQSPKFLISKVSNRFSGVPDRFSGSGSGTDFTLKISRVEAEDLGIYYCFQGSHVPYTFGGGTKLEIK",16.6
8,"B1.39 (antibody, V domains shown) VH: EVMLVESGGGLVKPGGSLKLSCAASGFTFSSYTMSWVRQTPEKRLEWVATVSSGGGNTYYPDSVKGRFTISRDNAKNNLYLQMSSLRSEDTALYYCARYGNYGWFTYWGQGTLVTVSA VL: DVLMTQTPLSLPVSLGDQASISCRSSQSILHSNGNTYLEWYLQKPGQSPKLLIYKVSNRFSGVPDRFSASGSGTDFTLKISRVEAEDLGIYYCFQGSHVPRTFGGGTKLEIK",14.2
9,"B1.207 (antibody, V domains shown) VH: GVQLVESGGALVKPGGSLKLSCAASGFTFSNYAMSWVRQTPEKRLEWVATISSGGSYTYYPDSVKGRFTISRDNAKTTLYLQMSGLRSEDTALYYCAKYSNYGRFASWGQGTLVTVST VL: DVLMTQTPLSLPVSLGDQASISCRSSQSIVHSSGNTYLEWYLQKPGQSPRLLIYKVSNRFFGVPDRISGSGSGTDFTLRISRVEAEDLGVYYCFQGSHVPYTFGGGTKLEIK",4.3
10,"B1.85 (antibody, V domains shown) VH: EVQLVESGGALVKPGGSLKLSCAASGFTFSNYGVSWVRQTPEKRLEWVATISSSGSYTYYPDIVRGRFTISRDNAKNTLYLQMSSLRSEDTAFYYCARGYGNFAWFAYWGQGTLVTVSA VL: DIQMTQSPLSLPVSLGDQASISCRSSQSIVHSTGNTYLEWYLQKPGQSPKLLIYKVSNRFSGVPDRFSGSGSGTDFTLKINRVEAEDLGVYYCFQGSHVPYTFGGGTKLEIK",9.2
11,"B1.201 (antibody, V domains shown) VH: EVQLVESGGALMKPGGSLKFSCAASGFTFTNYAMSWVRQTPEKRLEWVATISSGGSNTYYSDSVKGRFTISRDNAKTTLYLQMSGLRSEDTALYYCAKFSNFGRFASWGQGTLVTVSA VL: DVLMTQTPLSLPVSLGDQASISCRFSQSIVHSSGNTYLEWYLQKPGQSPRLLIYKVSNRFFGVPDRISGSGSGTDFTLRISRVEAEDLGVYYCFQGSHVPYTFGGGTKLEIK",8

# Target: human CD47 (human, UniProt Q08722 19-323)
# Assay: cell binding (flow cytometry, C6 cells)
row,Binder,EC50 [nM]
1,KT14.5F9hu scFv-B1.261.hu1 (bispecific antibody) scFv: not shown heavy: EVQLQESGPGLVKPSETLSLTCTVSGFSLTSYGVHWVRQPPGKGLEWLVVIWSDGSTTYNSALKSRLTISKDNSKNQVSLKLSSVTAADTAVYYCARHGRWLLQRGGAMDYWGQGTMVTVSSASTKGPSVFPLAPSSKSTSGGTAALGCLVKDYFPEPVTVSWNSGALTSGVHTFPAVLQSSGLYSLSSVVTVPSSSLGTQTYICNVNHKPSNTKVDKRVEPKSCDKTHTCPPCPAPELLGGPSVFLFPPKPKDTLMISRTPEVTCVVVDVSHEDPEVKFNWYVDGVEVHNAKTKPREEQYNSTYRVVSVLTVLHQDWLNGKEYKCKVSNKALPAPIEKTISKAKGQPREPQVCTLPPSREEMTKNQVSLSCAVKGFYPSDIAVEWESNGQPENNYKTTPPVLDSDGSFFLVSKLTVDKSRWQQGNVFSCSVMHEALHNHYTQKSLSLSPGK light: DVQMTQSPSSLSASVGDRVTITCRASQNVGSYIAWYQQKPGKSPKALIYSASYRSSGVPSRFSGSGAGTDFTLTISSLQPEDFATYFCQQYNSYPLTFGGGTKLEIKRTVAAPSVFIFPPSDEQLKSGTASVVCLLNNFYPREAKVQWKVDNALQSGNSQESVTEQDSKDSTYSLSSTLTLSKADYEKHKVYACEVTHQGLSSPVTKSFNRGEC,2.7
